Values of other authors as cited in patent US20200216492A1, “USE OF C-TERMINALLY EXTENDED PEPTIDES TO DISRUPT INHIBITOR NK CELL RECEPTOR INTERACTIONS WITH MHC I” (La Jolla Institute for Allergy and Immunology, priority 2016, published 2020).

Biological target: HLA-B*57:01 (Homo sapiens, UniProt P01889, D201E/D98Y/E176V/E187L/E204Q/E69M/E70A/G107R/I90N/K202T/L105A/L119I/N104I/N87E/Q89R/Q94S/R106L/R155S/R180L/R86G/S101N/S121V/S35A/S48A/T118I/V36M/Y140S/Y91M)
Conditions: previously determined; read-out: binding affinity KD to HLA-B*57:01

Kd: 17 µM
B1: KIR3DL1: inhibitory killer immunoglobulin receptor on NK cells binding HLA-B*57:01 (protein, UniProt P43629 22-444, looked up)
Killer cell …: HMGGQDKPFLSAWPSAVVPRGGHVTLRCHYRHRFNNFMLYKEDRIHIPIFHGRIFQESFNMSPVTTAHAGNYTCRGSHPHSPTGWSAPSNPVVIMVTGNHRKPSLLAHPGPLVKSGERVILQCWSDIMFEHFFLHKEGISKDPSRLVGQIHDGVSKANFSIGPMMLALAGTYRCYGSVTHTPYQLSAPSDPLDIVVTGPYEKPSLSAQPGPKVQAGESVTLSCSSRSSYDMYHLSREGGAHERRLPAVRKVNRTFQADFPLGPATHGGTYRCFGSFRHSPYEWSDPSDPLLVSVTGNPSSSWPSPTEPSSKSGNPRHLHILIGTSVVIILFILLLFFLLHLWCSNKKNAAVMDQEPAGNRTANSEDSDEQDPEEVTYAQLDHCVFTQRKITRPSQRPKTPPTDTILYTELPNAKPRSKVVSCP
